# Assays:
# [1] = test system: liver, lung, kidney, spleen, and muscle cells; settings: cited from earlier work
# BBB = assay: in situ brain perfusion in mice; assay type: in vivo; settings: 125 nM radiolabeled conjugate; uptake into the brain; FIG. 20
# Description: Transport of the conjugates was measured in vivo using in situ brain perfusion in mice. […] The amount present in the brain parenchyma was determined following brain capillary depletion (FIG. 6).
# In situ perfusions using 125 nM of the cleavable and non-cleavable conjugates were performed, and uptake into the brain was measured. Inulin was used as a control. […] Kin values were measured for each protein: The cleavable conjugated has a Kin value of 1.1×10^−4 ml/s/g, the non-cleavable has a Kin value of 4.7×10^−5 ml/s/g, and inulin has a Kin value of 2.1×10^−5 ml/s/g.
# Partition into brain compartments of the siRNA following capillary depletion was also measured. This perfusion was also performed at 125 nM.
# In situ perfusions were also performed using fluorescent siRNA.
substance,measurement,setting,value
T F F Y G G S R G R R N N F R T E E Y (TFFYGGSRGRRNNFRTEEY) [AngioPep-7],transport into cells of tissues,[1],"efficiently transported into liver, lung, kidney, spleen, and muscle cells"
inulin,Kin,BBB,2.1e-05 mL/s/g

# From patent US20110039785A1, “POLYPEPTIDE-NUCLEIC ACID CONJUGATES AND USES THEREOF” (Angiochem Inc., priority 2007, published 2011)
